Experimental data published in paper PMC9060481 (2022).
Several values for one entry are separate records, joined by “and”; a condition that tells them apart may be missing. Equal values may be shown once.

Assays:
[1] = molecular target: T1, calmodulin 2 (CaM2), purified recombinant protein (M. truncatula); assay: ITC; 5 mM CaCl2
[2] = molecular target: T1, calmodulin 2 (CaM2), purified …; assay: BLI; 20 mM CaCl2
[3] = molecular target: T1, calmodulin 2 (CaM2), purified …; assay: BLI; 20 mM CaCl2; remark: listed apart in the source

Kd [1]	Kd [2] [µM]	koff [3] [s⁻¹]	Binder
0.644 µM and 0.64 µM	–	–	AACFIQAAWRRHKKRKEA [CNGC15c-IQ peptide]
–	59	0.43	His6-MBP:CtermCNGC15b (domain or fragment) GNMQTYLQSTTVRLEEWRVKRTDTEQWMHHRQLPQELRQSVRKYDQYKWIATRGVDEESLLRGLPLDLRRDIKRHLCLELVRRVPLFDAMDERMLDAICERLKPALCTENTYLVREGDPVNEMLFIIRGNLDSYTTDGGRTGFFNSCRIGPGDFCGEELLTWALDPRPTMVIPSSTRTVKAISEVEAFALIAEDLKFVASQFRRLHSKQLRNKLRFHSHQWRTWAACFIQVAWRRTIQEKKGSC
–	526	0.77	His6-MBP:CtermCNGC15a (domain or fragment) GNMQTYLQSTTIRLEEWRIRRTDTERWMHHRQLPHYLKENVRRHDQFRWVATRGVDEEAILRDLPVDLRRDIKRHLCLNLVRQVPLFDQMDDRMLDAICERLKPTLCTPGTCIVREGDPVDEMLFIVRGRLDSCTTNGGRTGFFNTCRIGSGDFCGEELLPWALDPRPTAVLPSSTRTVRAITEVEAFALIAEDLKFVAAQFRRLHSKQLRQTFRFYSHQWRTWAACFIQAAWFRYKRMKETNEVKEKENLMMMSNVKYYGNDDSQYFSAPLQVPKGSSYSMYSGKLVGSLRRGRSMRYGSELDMLGTLRKPIEPDFNDDGD
1.39 µM	–	–	AACFIQVAWRRTIQEKKG [CNGC15b-IQ peptide]
–	14.6	0.077	His6-MBP:CtermCNGC15c (domain or fragment) LIGNMQTYLQSITVRLEEWRVKRTDTEQWMHHRQLPPELRESIRKYNQYKWVATRGVEEEDLLKGLPLDLRREIKRHLCLELVRGVPLFDQMDERMLDAICERLKPALCTEGTYLVREGDPVNEMLFIIRGHLDSYTTNGGRDGFFNSCRIGPGDFCGEELLTWALDPRPSVILPSSTRTVKAFSEVEAFALIAEDLKFVASQFRRLHSKQLRHKFRFYSHQWRTWAACFIQAAWRRHKKRKEAAELRAKENLVAASEAENEIAKKYGKGFVVYGTRVARSTRKGVNMHSGTNSGVVSSLQKPTEPDFSDE
